According to paper PMC4487810:

Substrate: O=P(O)(O)CCO
Test: purified protein
Conditions: O2 co-substrate
[1] = enzyme saturated with Fe(II) (more than 1 equivalent)

Row | Protein | Km (Fe(II)) [µM] | kcat (Fe(II)) [s⁻¹] | Km (Fe(II), labelled compound) [µM] | kcat (Fe(II), labelled compound) [s⁻¹] | Km [1] [µM] | kcat [1] [s⁻¹]
1 | 2-hydroxyethylphosphonate dioxygenase (HEPD) (Streptomyces viridochromogenes DSM 40736) (protein) MRIDPFKLAHWMNARKYTAAQTADLAGLPLDDLRRLLGDEANEPDPAAATALAEALSVEPSQLAADAHRNLTVVHKSAEEMHASRRPIQRDGIHFYNYYTLAAPEGRVAPVVLDILCPSDRLPALNNGHLEPAITVNLGPGDINGRWGEEITPQTWRVLHANHGGDRWITGDSYVEPSYCPHSYSLAGDAPARIVSYTAQSNISPLMTEANNWSTGAFEEALKALSGKVSAGSVLDLFLARRAHTRTSAAEAAGVPPADLEAALRSPASETGLTVLRTLGRALGFDYRVLLPADDQHDGVGKTWTTIEDSRRSRRTFGTYEAASMASAAHLPDLVGSFLRVDADGRGADLIDHAENHYVVTEGRLTLEWDGPDGPASVELEPDGSAWTGPFVRHRWHGTGTVLKFGSGAHLGYQDWLELTNTFEPAATLRRGRRDLAGWGYDN | 8 ± 1 | 0.3 ± 0.01 | 10 ± 2 | 0.31 ± 0.01 | – | –
2 | 2-hydroxyethylphosphonate dioxygenase (HEPD) (Streptomyces viridochromogenes DSM 40736; E176H) (protein) MRIDPFKLAHWMNARKYTAAQTADLAGLPLDDLRRLLGDEANEPDPAAATALAEALSVEPSQLAADAHRNLTVVHKSAEEMHASRRPIQRDGIHFYNYYTLAAPEGRVAPVVLDILCPSDRLPALNNGHLEPAITVNLGPGDINGRWGEEITPQTWRVLHANHGGDRWITGDSYVHPSYCPHSYSLAGDAPARIVSYTAQSNISPLMTEANNWSTGAFEEALKALSGKVSAGSVLDLFLARRAHTRTSAAEAAGVPPADLEAALRSPASETGLTVLRTLGRALGFDYRVLLPADDQHDGVGKTWTTIEDSRRSRRTFGTYEAASMASAAHLPDLVGSFLRVDADGRGADLIDHAENHYVVTEGRLTLEWDGPDGPASVELEPDGSAWTGPFVRHRWHGTGTVLKFGSGAHLGYQDWLELTNTFEPAATLRRGRRDLAGWGYDN | – | – | – | – | 23 ± 3 | 0.38 ± 0.01
